B1: Transmembrane protein 43 (Homo sapiens), Q9BTV4 (parent)
chain: MAANYSSTSTRREHVKVKTSSQPGFLERLSETSGGMFVGLMAFLLSFYLIFTNEGRALKTATSLAEGLSLVVSPDSIHSVAPENEGRLVHIIGALRTSKLLSDPNYGVHLPAVKLRRHVEMYQWVETEESREYTEDGQVKKETRYSYNTEWRSEIINSKNFDREIGHKNPSAMAVESFMATAPFVQIGRFFLSSGLIDKVDNFKSLSLSKLEDPHVDIIRRGDFFYHSENPKYPEVGDLRVSFSYAGLSGDDPDLGPAHVVTVIARQRGDQLVPFSTKSGDTLLLLHHGDFSAEEVFHRELRSNSMKTWGLRAAGWMAMFMGLNLMTRILYTLVDWFPVFRDLVNIGLKAFAFCVATSLTLLTVAAGWLFYRPLWALLIAGLALVPILVARTRVPAKKLE
partner: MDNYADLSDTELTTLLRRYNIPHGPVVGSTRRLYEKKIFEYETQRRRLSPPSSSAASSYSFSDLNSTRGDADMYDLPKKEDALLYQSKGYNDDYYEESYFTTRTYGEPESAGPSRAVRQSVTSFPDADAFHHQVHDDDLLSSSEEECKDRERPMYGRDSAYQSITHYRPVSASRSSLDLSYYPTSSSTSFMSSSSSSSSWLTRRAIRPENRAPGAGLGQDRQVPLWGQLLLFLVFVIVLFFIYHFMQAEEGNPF
B2: Transmembrane protein 43 (Homo sapiens), Q9BTV4 (parent)
chain: B1 chain

Variants of: B1
Conditions: with emd_human EMD

| effect of a mutation on the interaction | Variant |
| --- | --- |
| with no effect | I91V |
| with no effect | E85K |

Variants of: B1
Conditions: with emd_human EMD
Remark: another data set of the same source

| effect of a mutation on the interaction | Variant |
| --- | --- |
| decreasing interaction strength | I91V |
| decreasing interaction strength | E85K |

Variants of: B2
Conditions: with sun2_human SUN2, Q9UH99
sun2_human SUN2, Q9UH99, sequence (Q9UH99 whole entry): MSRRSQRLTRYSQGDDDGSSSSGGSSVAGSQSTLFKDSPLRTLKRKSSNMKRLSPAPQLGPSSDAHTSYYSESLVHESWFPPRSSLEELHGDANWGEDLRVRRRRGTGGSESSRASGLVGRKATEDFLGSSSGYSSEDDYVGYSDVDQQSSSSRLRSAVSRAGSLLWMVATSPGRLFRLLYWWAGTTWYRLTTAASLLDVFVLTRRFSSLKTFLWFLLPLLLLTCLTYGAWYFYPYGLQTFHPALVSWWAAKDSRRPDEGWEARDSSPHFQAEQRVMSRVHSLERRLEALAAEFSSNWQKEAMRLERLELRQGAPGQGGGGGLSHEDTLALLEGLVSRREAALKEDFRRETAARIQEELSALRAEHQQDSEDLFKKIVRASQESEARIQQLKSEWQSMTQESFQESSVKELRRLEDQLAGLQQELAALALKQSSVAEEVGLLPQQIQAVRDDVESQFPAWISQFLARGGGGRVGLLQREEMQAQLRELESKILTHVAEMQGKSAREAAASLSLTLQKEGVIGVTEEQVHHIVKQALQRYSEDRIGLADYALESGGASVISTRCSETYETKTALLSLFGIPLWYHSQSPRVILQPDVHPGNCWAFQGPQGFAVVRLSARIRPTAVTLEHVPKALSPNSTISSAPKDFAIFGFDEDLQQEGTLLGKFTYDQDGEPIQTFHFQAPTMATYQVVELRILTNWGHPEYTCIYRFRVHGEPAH

| effect of a mutation on the interaction | Variant |
| --- | --- |
| decreasing interaction strength | E85K |
| decreasing interaction strength | I91V |

From IntAct's records for PubMed 21391237
